This assay deals with H3K23ub mononucleosomes (H3 'K23ub' thioether mimic), P68431;P0CG48;P04908;O60814;P62805. In words: Alpha-screen proximity assay. For orientation: Alpha assays give light when donor and acceptor beads are brought close together.

The results in this text go back to article PMC11662662.

Regarding “recombinant DNMT1 RFTS domain WT (His-MBP-RFTS) (from UniProt P26358) P378A; L381A”, the Kd (as a rule, the equilibrium constant for the complex coming apart) amounted to 140 nM.
